This is an account of results in US20240132615A1 (ICHNOS SCIENCES, published 2024).

Assay [1] has as its target T1, recombinant human CD38 antigen for crystallography (hsCD38 ECD) (human, UniProt P28907 45-300).
T1 construct: also called ectodomain of hsCD38
Nature of the assay: X-ray crystal structure of the complex, 3.4 Å.
Protocol: The Fab/hsCD38 complex was concentrated to ˜11 mg/mL. […] Drops consisting of 1 μL protein+1 μL precipitant were set up at 20° C., and crystals appeared within 3-7 days. The resulting crystals were cryoprotected by soaking in well solution supplemented with 35% ethylene glycol, then flash cooled and stored in liquid nitrogen until data collection. Diffraction data were collected at the Swiss Light Source (SLS). […] The structure was determined by molecular replacement with Phaser.

Assay [2] concerns the target T2, recombinant cynomolgus monkey CD38-ECD-C-his protein (cynomolgus monkey, UniProt Q5VAN0 45-301).
T2 construct: made in house; Q5VAN0 residues 43-301 (residue 44 deleted) with C-terminal 6-His; also called cynomolgus monkey CD38-C-His; recombinant cynomolgus monkey CD38 protein
Nature of the assay: SPR, Fab as analyte, captured cynomolgus CD38-his.
Protocol: (§1) Surface plasmon resonance (SPR) was used to measure the binding affinities of the Fab fragments for human and cynomolgus monkey CD38. Affinities were measured on a Biacore T200 instrument (Cytiva Life Sciences) at 25° C. and analyzed with the Biacore T200 Evaluation Software (v3.1).
(§2) The affinities to human and cynomolgus monkey CD38 were assessed by immobilizing CD38 and using Fab fragments as analyte. […] Fab fragments were injected in single cycle kinetic at different concentrations ranging from 7.8 to 2000 nM, in HBS-EP+ buffer (Cytiva Life Sciences, catalog NO: BR100669) at a flow rate of 30 μl/min for 3 min on flow-path 1 and 2 (flow-path 1 being used as reference). Dissociation was monitored for 5 min. […] Experimental data were processed using the 1:1 Langmuir kinetic fitting model.

The target of assay [3] is T3, Biotinylated Human CD38 Protein, Avitag, His Tag (Acrobiosystems CD8-H82E7) (human, UniProt P28907 43-300, biotinylated).
T3 construct: bought protein; also called biotinylated recombinant human CD38 protein; human CD38-avi-his
Nature of the assay: SPR, Fab as analyte, immobilised biotinylated human CD38.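 Note: biacore T200 at 25 °C, single-cycle kinetics with Fab from 7.8 to 2000 nM, 3 min association then 5 min dissociation, fitted with a 1:1 Langmuir model.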 For orientation: Surface plasmon resonance follows binding to a sensor surface in real time, without labels.
Protocol: as §1, §2

Assay [4] deals with T4, human BCMA on multiple myeloma cells (human, UniProt Q02223 1-184).
T4 construct: whole, on cells; Here the protein is the cell lines' own; also called B-cell maturation antigen; TNFRSF17
T4 sequence (looked up): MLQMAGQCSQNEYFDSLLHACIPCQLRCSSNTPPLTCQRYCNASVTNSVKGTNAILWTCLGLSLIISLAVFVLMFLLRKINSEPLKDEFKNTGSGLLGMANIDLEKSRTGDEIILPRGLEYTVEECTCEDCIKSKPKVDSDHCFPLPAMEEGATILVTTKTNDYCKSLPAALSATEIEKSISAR
Nature of the assay: flow cytometry on MOLP-8 cells; one-site binding fit.

Assay [5] has as its target T4, human BCMA on multiple myeloma cells. Nature of the assay: flow cytometry on KMS-12-BM cells; one-site binding fit. Background: Flow cytometry measures light scatter and fluorescence of single cells or particles in a stream.
Protocol: (§3) The plates were centrifuged at 350 g for 3 min at 4° C. and cells washed twice with DPBS.
(§4) Cells were resuspended in 25 μl of LIVE/DEAD Fixable Near-IR Dead Cell Stain (ThermoFisher Scientific, L34976) diluted at 1/1′000 in DPBS and incubated 20 min at 4° C. […] Cells were then washed twice and resuspended in 25 μl of FACS buffer with azide. Samples were acquired on an iQue Screener Plus instrument (IntelliCyt). Cells were gated based on size on FSC vs SSC and debris, doublets and dead cells were excluded. Population was analyzed for APC-geometric mean (geomean) fluorescence intensity (MFI) using iQue Forecyt® software. Only samples showing at least 2′000 cells in final gate were considered in the further steps of the analysis. Relative geometric mean fluorescence intensity (RFI) was calculated by subtracting the MFI of the negative control from the MFI of the sample at each dilution. RFI values were finally plotted using Prism software (GraphPad). Equilibrium dissociation constant values (KD) and maximum binding were determined by using one-site binding curve fitting on non-transformed data (Prism).
For assay [6] the target is unchanged. Nature of the assay: flow cytometry on NCI-H929 WT cells; one-site binding fit.
Protocol: as §3, §4
The target is the same in assay [7]. Nature of the assay: flow cytometry on NCI-H929 CD38 KO cells; one-site binding fit.
Protocol: as §3, §4
Assay [8] shares this target. Nature of the assay: flow cytometry on KMS-12-BM cells (BCMA+CD38+), anti-human IgG secondary, RFI.
Protocol: as §3, §4
Assay [9] has the same target. Nature of the assay: flow cytometry on NCI-H929 cells (BCMA++CD38++), anti-human IgG secondary, RFI.
Protocol: as §3, §4
Assay [10] concerns the target T5, human CD3 on primary human T cells (human, UniProt P07766 23-207; P04234 22-171; P09693 23-182; P20963 22-164).
T5 construct: whole, on cells; Endogenous CD3 complex on isolated human T cells, gated CD38-negative; also called CD3-expressing T cells; human CD38 negative T cells
Nature of the assay: flow cytometry on isolated human primary T cells gated CD38-negative; one-site binding fit.
Protocol: Cells were thawed in pre-warmed complete RPMI medium (RPMI supplemented with 10% heat inactivated fetal calf serum, 1% L-Glutamine, 1% Non-essential Amino Acids, 1% Sodium Pyruvate, and 1% Penicillin/Streptomycin) and rested overnight at 1.5×10⁶ cells/ml. Cells were plated at 1×10⁵ cells/well in 96-well round-bottom plates. The plates were centrifuged at 350 g for 3 min at 4° C. and cells washed twice with DPBS. Cells were resuspended in 25 μl of LIVE/DEAD Fixable Near-IR Dead Cell Stain (ThermoFisher Scientific, L34976) diluted at 1/1′000 in DPBS and incubated 20 min at 4° C. […] Cells were then washed twice and resuspended in 25 μl of FACS buffer with azide. Samples were acquired on an iQue Screener Plus instrument (IntelliCyt). Cells were gated based on size on FSC vs SSC and debris, doublets and dead cells were excluded. Finally, viable cells were gated on CD38-T cells. The population was analyzed for PE-geometric mean (geomean) fluorescence intensity (MFI) using iQue Forecyt© software. Only samples showing at least 2′000 cells in final gate were considered in the further steps of the analysis. Relative geometric mean fluorescence intensity (RFI) was calculated per donor by subtracting the mean of MFI of the negative control from the MFI of the sample at each dilution. RFI values were finally plotted using Prism software (GraphPad). Equilibrium dissociation constant values (KD) and maximum binding were determined by using one-site binding curve fitting on non-transformed data (Prism). […] Two independent experiments were performed.

For assay [11], the target named is T4, human BCMA on multiple myeloma cells. Nature of the assay: flow cytometry on NCI-H929 CD38 KO cells (BCMA++CD38-), anti-human IgG secondary, RFI.
Protocol: as §3, §4
The target of assay [12] is T5, human CD3 on primary human T cells. Nature of the assay: flow cytometry on isolated human T cells (CD38-negative gate), anti-human IgG secondary, relative fluorescence (RFI).

T5 sequence (P07766 23-207, chain 1 of 4): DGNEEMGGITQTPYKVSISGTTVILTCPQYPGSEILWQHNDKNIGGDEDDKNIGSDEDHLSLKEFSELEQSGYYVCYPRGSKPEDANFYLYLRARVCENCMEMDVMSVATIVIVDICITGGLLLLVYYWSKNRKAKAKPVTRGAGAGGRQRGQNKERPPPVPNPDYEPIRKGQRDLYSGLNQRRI
T5 sequence (P04234 22-171, chain 2 of 4): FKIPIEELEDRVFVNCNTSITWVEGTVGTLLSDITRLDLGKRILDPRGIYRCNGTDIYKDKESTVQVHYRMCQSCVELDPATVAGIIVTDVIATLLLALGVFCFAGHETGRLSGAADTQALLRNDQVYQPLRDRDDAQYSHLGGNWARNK
T5 sequence (P09693 23-182, chain 3 of 4): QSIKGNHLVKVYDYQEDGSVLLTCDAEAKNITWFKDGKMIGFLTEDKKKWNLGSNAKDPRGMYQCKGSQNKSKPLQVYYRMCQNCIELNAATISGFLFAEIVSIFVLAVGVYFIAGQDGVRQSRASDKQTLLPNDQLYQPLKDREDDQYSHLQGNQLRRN
T5 sequence (P20963 22-164, chain 4 of 4): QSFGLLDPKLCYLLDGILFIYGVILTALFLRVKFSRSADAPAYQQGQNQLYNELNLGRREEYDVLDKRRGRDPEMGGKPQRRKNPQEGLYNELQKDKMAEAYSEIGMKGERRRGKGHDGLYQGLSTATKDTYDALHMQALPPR

B1: Anti-CD38-UCP03-B3 FAB (Fab, V domains shown)
VH: QVQLVQSGAEVKKPGSSVKVSCKASGGDFTLYSISWVRQAPGQGLEWMGRIIPTGANANYAQKFQGRVTITADESTSTAYMELSSLRSEDTAVYYCARSWPSLGSGWFDIWGQGTLVTVSS
VL: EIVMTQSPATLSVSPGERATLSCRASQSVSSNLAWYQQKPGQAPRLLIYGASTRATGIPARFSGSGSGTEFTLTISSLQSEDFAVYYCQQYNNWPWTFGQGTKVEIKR
notes: Fab; also called anti-CD38-B3; anti-CD38-B3 Fab
The term Kd denotes the constant that tells how readily two partners part at equilibrium. Take B1: in [1], the binding result was “binds”. The values for the Kd in assay [2] and in [3] were 170 nM and 115 nM, respectively.

B2: teclistamab (bispecific antibody)
chain 1: not shown
chain 2: SYVLTQPPSVSVAPGQTARITCGGNNIGSKSVHWYQQPPGQAPVVVVYDDSDRPSGIPERFSGSNSGNTATLTISRVEAGDEAVYYCQVWDSSSDHVVFGGGTKLTVLGQPKAAPSVTLFPPSSEELQANKATLVCLISDFYPGAVTVAWKGDSSPVKAGVETTTPSKQSNNKYAASSYLSLTPEQWKSHRSYSCQVTHEGSTVEKTVAPTECS
chain 3: EVQLVESGGGLVQPGGSLRLSCAASGFTFNTYAMNWVRQAPGKGLEWVARIRSKYNNYATYYAASVKGRFTISRDDSKNSLYLQMNSLKTEDTAVYYCARHGNFGNSYVSWFAYWGQGTLVTVSSASTKGPSVFPLAPCSRSTSESTAALGCLVKDYFPEPVTVSWNSGALTSGVHTFPAVLQSSGLYSLSSVVTVPSSSLGTKTYTCNVDHKPSNTKVDKRVESKYGPPCPPCPAPEAAGGPSVFLFPPKPKDTLMISRTPEVTCVVVDVSQEDPEVQFNWYVDGVEVHNAKTKPREEQFNSTYRVVSVLTVLHQDWLNGKEYKCKVSNKGLPSSIEKTISKAKGQPREPQVYTLPPSQEEMTKNQVSLTCLVKGFYPSDIAVEWESNGQPENNYKTTPPVLDSDGSFLLYSKLTVDKSRWQEGNVFSCSVMHEALHNHYTQKSLSLSLGK
chain 4: QTVVTQEPSLTVSPGGTVTLTCRSSTGAVTTSNYANWVQQKPGQAPRGLIGGTNKRAPGTPARFSGSLLGGKAALTLSGVQPEDEAEYYCALWYSNLWVFGGGTKLTVLGQPKAAPSVTLFPPSSEELQANKATLVCLISDFYPGAVTVAWKADSSPVKAGVETTTPSKQSNNKYAASSYLSLTPEQWKSHRSYSCQVTHEGSTVEKTVAPTECS
What is called EC50 (read off the curve) is the concentration needed to bring the measured effect to its halfway point. As for B2, the Kd came to 95.8 nM in assay [4]; 21.8 nM in assay [5]; 30.4 nM in [6]; 46.3 nM in [7]; 18 nM in [10]. For the same molecule, the “EC50 (read off the curve)” value in assay [8] was roughly 20 nM; in assay [9], roughly 30 nM; in assay [11] it was roughly 40 nM; in assay [12] it was roughly 20 nM.
